Experimental data from US12065505B2, “Antibodies and antigen binding peptides for factor XIa inhibitors and uses thereof” (Bristol-Myers Squibb Company, priority 2021, dated 2024).

Key:
[1] = SPR (Biacore) on chip coated with BSA conjugated to COMPOUND 2; assay type: binding; details: Fab over COMPOUND 2-BSA surface; for Ka / koff, dissociation rate constant: apparent; for Kd: apparent affinity
Procedure: The binding of the first round affinity matured antibody Fab fragments to conjugated versions of Compound A was examined by SPR (Biacore™) using a CM5 S-series sensor chip (Cytiva, Cat. No. 29149603) coated with BSA previously conjugated to COMPOUND 2, COMPOUND 3 or COMPOUND 1. The immobilization level was 150-250 RUs. The running buffer was 1×PBS (phosphate buffered saline, pH 7.4) with 0.05% Tween 20. […] The antibody Fab fragment at a concentration of between 200-0.8 nM was injected over the BSA-compound coated surface for 2 minutes at a flow rate of 30 uL/min. The antibody Fab fragment was then allowed to dissociate for 15 minutes. The chip surface was regenerated after each cycle with a 1 minute pulse of 10 mM Glycine, pH 2, and a 1 minute pulse of 50 mM NaOH. All experiments were run on the same equipment and analyzed with the same software as described before. Apparent affinities were determined for rank ordering only since dissociation rates were too slow to be measured by Biacore. Comparative experiments with selected mAbs were also conducted in a similar fashion (see FIG. 11).

[2] = Kinetic Exclusion Assay (KinExA) solution affinity; assay type: binding; details: for KinExA Ka: complex association rate, 200 pM Fab and 400 pM Compound A; for Kd: solution affinity for Compound A, Fab 100, 200, 300 pM, equilibrated 24-72 hours
Procedure: The solution affinity of the antibody Fab fragments disclosed herein for Compound A was measured using a Kinetic Exclusion Assay (KinExA). […] The relative unbound concentration of 26D5 affinity matured antibody Fab fragment was measured by capture on a streptavidin coated bead with COMPOUND 5 followed by detection with a fluorescently labeled antibody that recognizes the human IgG Fab. Kinetic analysis to determine the complex association rate was measured with the same assay format except that a single tube of the mixture was prepared (200 pM Fab and 400 pM Compound A) and time points were removed immediately (no equilibration). Two Fabs, 26D5-75229-343-A10-Fab-SHORT and 26D5-75616-348-F10-Fab-SHORT, were identified as the top two Fabs by DSC thermal stability and KinExA analysis. Antibody Fab fragment 26D5-75616-348-F10-Fab-SHORT (SEQ ID NO: 106 and SEQ ID NO: 164; see Table 3) was selected for X-ray crystallography as described below and in vivo studies as described in Example 12.

[3] = Thermal stability by Differential Scanning Calorimetry; assay type: physicochemical; details: DSC; Fab 1 mg/ml
Procedure: Thermal stability analysis was performed with UNchained Labs UNcle™/Tagg analysis with Fabs at a concentration of 20 uM with or without Compound A at a concentration of 50 uM (or control compound). Capillaries were scanned from 25 to 90° C. at 0.5° C./min. In addition, select Fabs were also analyzed by Differential Scanning calorimetry analysis using the Malvern MicroCal VP-Capillary DSC. Samples were buffer matched and loaded with Fabs at a concentration of 10 uM with or without Compound A at a concentration of 15 uM (or control compound). Scan temperature range was 15-110° C. at a rate of 60° C./Hr (Filter period: 16 sec, Gain: None). Sample analysis was using software provided by the manufacturer for both the UNcle and the Malvern Capillary DSC. FIG. 15 and Table 14 below show representative DSC results.

Row | Molecule | Ka ([1]; 37° C.) [M⁻¹ s⁻¹] | koff, dissociation rate constant ([1]; 37° C.) [s⁻¹] | Kd ([1]; 37° C.) [pM] | KinExA Ka [2] [M⁻¹ s⁻¹] | Tm1 (° C.) [3] [°C] | further results
1 | 26D5-GVR-Q-FT-Fab-SHORT: antibody Fab fragment; VH SEQ ID NO: 81, VL SEQ ID NO: 99; sequence in Table 3 (antibody, V domains shown) VH: EVQLVESGGGLIQPGGSLRLSCAASGFTVSRNYMSWVRQAPGKGLEWVSFIYSGGRTYYADSVKGRFTISRDNSKNTLYLQMNSLRAEDTAVYYCARGGFGGGDYWGQGTLVTVSS VL: DIQMTQSPSSVSASVGDRVTITCRASQGISSWLAWYQQKPGKAPKLLIYAASSLQSGVPSRFSGSGSGTDFTLTISSLQPEDFATYYCQQANSFPLTFGGGTKVEIK | 1.6e+06 | 0.0013 | 900 |  |  | 
2 | 26D5-GVR-H-Fab-LONG: antibody Fab fragment; VH SEQ ID NO: 81, VL SEQ ID NO: 98; sequence in Table 3 (antibody, V domains shown) VH: EVQLVESGGGLIQPGGSLRLSCAASGFTVSRNYMSWVRQAPGKGLEWVSFIYSGGRTYYADSVKGRFTISRDNSKNTLYLQMNSLRAEDTAVYYCARGGFGGGDYWGQGTLVTVSS VL: DIQMTQSPSSVSASVGDRVTITCRASQGISSWLAWYQHKPGKAPKLLIYAASSLQSGVPSRFSGSGSGTDFTLTISSLQPEDFATYYCQQANSFPLTFGGGTKVEIK | 280000 | 0.001 | 3500 |  |  | 
3 | 9C8-VGSKE-Fab-LONG: antibody Fab fragment; VH SEQ ID NO: 78, VL SEQ ID NO: 96; sequence in Table 3 (antibody, V domains shown) VH: QVQLQESGPGLVKPSETLSLTCAVSGYSISSGYYWGWIRQPPGKGLEWIGSIYHSGNTYYSPSLQSRVTISVDTSKNQFSLKLSSVTAADTAVYYCARGGDFDILTGYYKGWFEPWGQGTLVTVSS VL: AIQLTQSPSSLSASVGDRVTITCRASQGISSALAWYQQKPGKAPKLLIYDASSLESGVPSRFSGSGSGTDFTLTISSLQPEDFATYYCQQFNSYPQTFGQGTKVEIK |  |  |  |  |  | Ka ([1]; 25° C.): 400000 M⁻¹ s⁻¹; koff, dissociation rate constant ([1]; 25° C.): 0.00087 s⁻¹; Kd ([1]; 25° C.): 2100 pM
4 | 26D5-75203-343-B09-Fab-SHORT: antibody Fab fragment; VH SEQ ID NO: 54, VL SEQ ID NO: 87; sequence in Table 3 (antibody, V domains shown) VH: EVQLVESGGGLIQPGGSLRLSCAASGFTVSSNAMSWVRQAPGKGLEWVSYIYPGGRTYYADSVKGRFTISRDNSKNTLYLQMNSLRAEDTAVYYCARAGFGGGDYWGQGTLVTVSS VL: DIQMTQSPSSVSASVGDRVTITCRASQGISSNLAWYQQKPGKAPKLLIYAASTLQSGVPSRFSGSGSGTDFTLTISSLQPEDFATYYCQQANEFPLTFGGGTKVEIK |  |  |  | 14000 | 76.6 | Kd [2]: 10 pM
5 | 26D5-295-C08-Fab-LONG: antibody Fab fragment; VH SEQ ID NO: 62, VL SEQ ID NO: 88; sequence in Table 3 (antibody, V domains shown) VH: EVQLVESGGGLIQPGGSLRLSCAASGFQVSSNAMSWVRQAPGKGLEWVSFIYPGGRTYYADSVKGRFTISRDNSKNTLYLQMNSLRAEDTAVYYCARGGFGGGDYWGQGTLVTVSS VL: DIQMTQSPSSVSASVGDRVTITCRASQGISSNLAWYQQKPGKAPKLLIYAASSLQSGVPSRFSGSGSGTDFTLTISSLQPEDFATYYCQQANSFPLTFGGGTKVEIK | 280000 | 8.5e-05 | 300 |  |  | 
6 | 26D5-295-B08-Fab-LONG: antibody Fab fragment; VH SEQ ID NO: 60, VL SEQ ID NO: 88; sequence in Table 3 (antibody, V domains shown) VH: EVQLVESGGGLIQPGGSLRLSCAASGFTVSSNAMSWVRQAPGKGLEWVSFIYPGGRTYYADSVKGRFTISRDNSKNTLYLQMNSLRAEDTAVYYCARAGFGGGDYWGQGTLVTVSS VL: DIQMTQSPSSVSASVGDRVTITCRASQGISSNLAWYQQKPGKAPKLLIYAASSLQSGVPSRFSGSGSGTDFTLTISSLQPEDFATYYCQQANSFPLTFGGGTKVEIK | 280000 | 0.00022 | 800 |  |  | 
7 | 26D5-295-C08-Fab-SHORT: antibody Fab fragment; VH SEQ ID NO: 62, VL SEQ ID NO: 88; sequence in Table 3 (antibody, V domains shown) VH: EVQLVESGGGLIQPGGSLRLSCAASGFQVSSNAMSWVRQAPGKGLEWVSFIYPGGRTYYADSVKGRFTISRDNSKNTLYLQMNSLRAEDTAVYYCARGGFGGGDYWGQGTLVTVSS VL: DIQMTQSPSSVSASVGDRVTITCRASQGISSNLAWYQQKPGKAPKLLIYAASSLQSGVPSRFSGSGSGTDFTLTISSLQPEDFATYYCQQANSFPLTFGGGTKVEIK |  |  |  |  | 75.3 | 
8 | 26D5-75214-343-F06-Fab-SHORT: antibody Fab fragment; VH SEQ ID NO: 53, VL SEQ ID NO: 85; sequence in Table 3 (antibody, V domains shown) VH: EVQLVESGGGLIQPGGSLRLSCAASGFTVSSNAMSWVRQAPGKGLEWVSFIYPGGRTYYADSVKGRFTISRDNSKNTLYLQMNSLRAEDTAVYYCARAGFGGPDYWGQGTLVTVSS VL: DIQMTQSPSSVSASVGDRVTITCRASQGISSNLAWYQQKPGKAPKLLIYAASSLQSGVPSRFSGSGSGTDFTLTISSLQPEDFATYYCQQANEFPLTFGGGTKVEIK |  |  |  | 600000 | 75.5 | Kd [2]: 15 pM
9 | 26D5-75202-343-A09-Fab-SHORT: antibody Fab fragment; VH SEQ ID NO: 54, VL SEQ ID NO: 86; sequence in Table 3 (antibody, V domains shown) VH: EVQLVESGGGLIQPGGSLRLSCAASGFTVSSNAMSWVRQAPGKGLEWVSYIYPGGRTYYADSVKGRFTISRDNSKNTLYLQMNSLRAEDTAVYYCARAGFGGGDYWGQGTLVTVSS VL: DIQMTQSPSSVSASVGDRVTITCRASQGIYSNLAWYQQKPGKAPKLLIYAASSLQSGVPSRFSGSGSGTDFTLTISSLQPEDFATYYCQQANEFPLTFGGGTKVEIK |  |  |  | 150000 | 75.3 | Kd [2]: 19 pM
10 | 26D5-75229-343-A10-Fab-SHORT: antibody Fab fragment; VH SEQ ID NO: 52, VL SEQ ID NO: 84; sequence in Table 3 (antibody, V domains shown) VH: EVQLVESGGGLIQPGGSLRLSCAASGFTVSSNAMSWVRQAPGKGLEWVSYIYPGGRTYYADSVKGRFTISRDNSKNTLYLQMNSLRAEDTAVYYCARAGFGGPDYWGQGTLVTVSS VL: DIQMTQSPSSVSASVGDRVTITCRASQGISSNLAWYQQKPGKAPKLLIYAASSLQSGVPSRFSGSGSGTDFTLTISSLQPEDFATYYCQQANQFPLTFGGGTKVEIK |  |  |  | 50000 | 74.9 | 
11 | 26D5-75768-348-A10-Fab-SHORT: antibody Fab fragment; VH SEQ ID NO: 56, VL SEQ ID NO: 89; sequence in Table 3 (antibody, V domains shown) VH: EVQLVESGGGLIQPGGSLRLSCAASGFTVSSNAVSIVRQAPGKGLEWVAYIYPGGRTYYADSVKGRFTISRDNSKNTLYLQMNSLRAEDTAVYYCTIGGFGGGDYWGQGTLVTVSS VL: DIQMTQSPSSVSASVGDRVTITCRASQGISSNNQWYQQKPGKAPKLLIYYASSLQSGVPSRFSGSGSGTDFTLTISSLQPEDFATYYCQQGNEFPLTFGGGTKVEIK |  |  |  |  | 66.3 | Tm2 (° C.) [3]: 74.1 °C
